Holding throughout (test): cell-based or functional assay
In test [1] the target is T1, recombinant human IL-4 (human, UniProt P05112 25-153).
T1 sequence (looked up): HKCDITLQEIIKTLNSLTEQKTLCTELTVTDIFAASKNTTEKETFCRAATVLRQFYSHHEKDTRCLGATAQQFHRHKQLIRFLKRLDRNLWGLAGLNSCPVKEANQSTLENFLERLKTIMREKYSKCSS

For a further test, the target named is recombinant human IL-13 (human, UniProt P35225 35-146).
For a further test, the target named is T2, IL-33 mm2 (human, UniProt O95760 112-270, limits assumed).
T2 sequence (looked up): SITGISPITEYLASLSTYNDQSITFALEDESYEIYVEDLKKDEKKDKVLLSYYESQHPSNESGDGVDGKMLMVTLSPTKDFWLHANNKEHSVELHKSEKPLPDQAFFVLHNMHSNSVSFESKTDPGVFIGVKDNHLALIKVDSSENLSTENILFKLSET

The target in test [2] is T1, recombinant human IL-4. The source holds these as a separate data set.
The target of test [3] is T1, recombinant human IL-4. The source holds these as a separate data set.

Sequence of recombinant human IL-13 (P35225 35-146 limits assumed): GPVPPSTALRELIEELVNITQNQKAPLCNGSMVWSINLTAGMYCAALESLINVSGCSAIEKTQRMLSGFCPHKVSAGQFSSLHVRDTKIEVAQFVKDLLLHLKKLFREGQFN

B1: IL13433-0005 (other)
heavy: EVTLRESGPALVKPTQTLTLTCTFSGFSLSNFGEGLSWIRQPPGKGLEWLAHIYWDDDKRYNPSLKSRLTISKDTSRNQVVLTMTNMDPVDTATYYCARRETVFYWYFDVWGQGTTVTVSSASTKGPSVFPEAPSSKSTSGGTAALGCLVKDYFPEPVTVSWNSGALTSGVHTFPAVLQSSGLYSLGSVVTVPSSSLGTQTYICNVNHKPSNTKVDKKVEPKSCDKTHTCPPCPAPEAAGAPSVFLFPPKPKDTLMISRTPEVTCVVVDVSHEDPEVKFNWYVDGVEVHNAKTKPREEQYNSTYRVVSVLTVLHQDWLNGKEYKCKVSNKALPAPIEKTISKAKGQPREPQVYTLPPCREEMTKNQVSLSCAVKGFYPSDIAVEWESNGQPENNYKTTPPVLDSDGSFFLVSKLTVDKSRWQQGNVFSCSVMHEALHNHYTQKSLSLSPGK
chain 1: DIQMTQSPSSLSASVGDRVTITCKASQNINKHLDWYQQKPGKAPKLLIYFTNNLQTGVPSRFSGSGSGTDFTLTISSLQPEDFATYYCFQYNQGWTFGGGTKVEIKRTVAAPSVFIFPPSDEQLKSGTASVVCLLNNFYPREAKVQWKVDNALQSGNSQESVTEQDSKDSTYSLSSTLTLSKADYEKHKVYACEVTHQGLSSPVTKSFNRGECGGGGSEVQLVESGGGLVQPGGSLRLSCAASGFTFSSYAMSWVRQAPGKGLEWVASISSGDTTYYPDSVKGRFTISRDNAKNSLYLQMNSLRAEDTAVYYCARNEGYYFGLTLWGQGTLVTVSSASTKGPSVFPKAPSSKSTSGGTAALGCLVKDYFPEPVTVSWNSGALTSGVHTFPAVLQSSGLYSLSSSVTVPSSSLGTQTYICNVNHKPSNTKVDKKVEPKSCDKTHTCPPCPAPEAAGAPSVFLFPPKPKDTLMISRTPEVTCVVVDVSHEDPEVKFNWYVDGVEVHNAKTKPREEQYNSTYRVVSVLTVLHQDWLNGKEYKCKVSNKALPAPIEKTISKAKGQPREPQVCTLPPSREEMTKNQVSLWCLVKGFYPSDIAVEWESNGQPENNYKTTPPVLDSDGSFFLYSKLTVDKSRWQQGNVFSCSVMHEALHNHYTQKSLSLSPGK
light 1: DIQMTQSPSSLSASVGDRVTITCKASQSVDEDGDSYMNWYQQKPGKAPKLLIYAASNLESGVPSRFSGSGSGTDFTLTISSLQPEDFATYYCQQSNEDPPTFGGGTKVEIKRTVAAPSVFIFPPSDEQLKSGTASVSCLLNNFYPREAKVQWKVDNALQSGNSQESVTEQDSKDSTYSLKSTLTLSKADYEKHKVYACEVTHQGLSSPVTKSFNRGEC
light 2: DIQMTQSPSSLSASVGDRVTITCKASESVDHFGWSLVHWYQQKPGKAPKLLIYRASNLESGVPSRFSGSGSGTDFTLTISSLQPEDFATYYCQQSNEDPWTFGGGTKVEIKRTVAAPSVFIFPPSDEQLKSGTASVSCLLNNFYPREAKVQWKVDNALQSGNSQESVTEQDSKDSTYSLDSTLTLSKADYEKHKVYACEVTHQGLSSPVTKSFNRGEC
chain 2: EVQLVESGGGLVQPGGSLRLSCAASGFTFSSYWMYWVRQAPGKGLEWVAAITPNAGEDYYPESVKGRFTISRDNAKNSLYLQMNSLRAEDTAVYYCARGHYYYTSYSLGYWGQGTLVTVSSASTKGPSVFPLAPSSKSTSGGTAALGCLVKDYFPEPVTVSWNSGALTSGVHTFPAVLQSSGLYSLSSVVTVPSSSLGTQTYICNVNHKPSNTKVDKKVEPKSC
In the case of B1, the “IL-4 Induced CD23 Expression, potency of cytokine neutralization” value with recombinant human IL-4 [1] came to 3.2 pM. The “IL-13 Induced CD23 Expression, potency of cytokine neutralization” value in the test with recombinant human IL-13 stood at 12.5 pM. In the test with IL-33 mm2, the “IL-33 mm2 Cys Activation of SEAP Reporter Cells, potency of cytokine neutralization” value turned out to be 45 pM.

B2: IL4-0002 (antibody, human IgG1, kappa)
heavy: EVTLRESGPALVKPTQTLTLTCTFSGFSLSNFGEGLSWIRQPPGKGLEWLAHIYWDDDKRYNPSLKSRLTISKDTSRNQVVLTMTNMDPVDTATYYCARRETVFYWYFDVWGQGTTVTVSSASTKGPSVFPLAPSSKSTSGGTAALGCLVKDYFPEPVTVSWNSGALTSGVHTFPAVLQSSGLYSLSSVVTVPSSSLGTQTYICNVNHKPSNTKVDKKVEPKSCDKTHTCPPCPAPEAAGAPSVFLFPPKPKDTLMISRTPEVTCVVVDVSHEDPEVKFNWYVDGVEVHNAKTKPREEQYNSTYRVVSVLTVLHQDWLNGKEYKCKVSNKALPAPIEKTISKAKGQPREPQVYTLPPSREEMTKNQVSLTCLVKGFYPSDIAVEWESNGQPENNYKTTPPVLDSDGSFFLYSKLTVDKSRWQQGNVFSCSVMHEALHNHYTQKSLSLSPGK
light: DIQMTQSPSSLSASVGDRVTITCKASQSVDEDGDSYMNWYQQKPGKAPKLLIYAASNLESGVPSRFSGSGSGTDFTLTISSLQPEDFATYYCQQSNEDPPTFGGGTKVEIKRTVAAPSVFIFPPSDEQLKSGTASVVCLLNNFYPREAKVQWKVDNALQSGNSQESVTEQDSKDSTYSLSSTLTLSKADYEKHKVYACEVTHQGLSSPVTKSFNRGEC
As to B2, the “IL-4 induced CD23 upregulation (IC50), parental IgG” value with recombinant human IL-4 [2] stood at 2.06 pM. For the same molecule, in the test with recombinant human IL-4 [3], the “IC50 (median), IL-4 induced CD23 expression on human monocytes” value came to 2.09 pM.

B3: IL13433-0607 (other)
heavy: EVQLVESGGGLVQPGGSLRLSCAASGFTFSSYAMSWVRQAPGKGLEWVASISTGDTTYYPDSVKGRFTISRDNAKNSLYLQMNSLRAEDTAVYYCARNEGYYFGLTQWGRGTLVTVSSASTKGPSVFPKAPSSKSTSGGTAALGCLVKDYFPEPVTVSWNSGALTSGVHTFPAVLQSSGLYSLSSSVTVPSSSLGTQTYICNVNHKPSNTKVDKKVEPKSCDKTHTCPPCPAPEAAGAPSVFLFPPKPKDTLMISRTPEVTCVVVDVSHEDPEVKFNWYVDGVEVHNAKTKPREEQYNSTYRVVSVLTVLHQDWLNGKEYKCKVSNKALPAPIEKTISKAKGQPREPQVCTLPPSREEMTKNQVSLWCLVKGFYPSDIAVEWESNGQPENNYKTTPPVLDSDGSFFLYSKLTVDKSRWQQGNVFSCSVLHEALHSHYTQKSLSLSPGK
chain 1: DIQMTQSPSSLSASVGDRVTITCRASQPISKHLDWYQQKPGKAPKLLIYFTNNLQTGVPSRFSGSGSGTDFTLTISSLQPEDFATYYCFQYNQGWTFGGGTKVEIKRTVAAPSVFIFPPSDEQLKSGTASVVCLLNNFYPREAKVQWKVDNALQSGNSQESVTEQDSKDSTYSLSSTLTLSKADYEKHKVYACEVTHQGLSSPVTKSFNRGECGGGGSEVTLRESGPALVKPTQTLTLTCTFSGFSLSNFGEGLSWIRQPPGKGLEWLAHIYWDDDKRYSTSLKTRLTISKDTSRNQVVLTMTNMDPVDTATYYCARRETVFYWYFDVWGQGTTVTVSSASTKGPSVFPEAPSSKSTSGGTAALGCLVKDYFPEPVTVSWNSGALTSGVHTFPAVLQSSGLYSLGSVVTVPSSSLGTQTYICNVNHKPSNTKVDKKVEPKSCDKTHTCPPCPAPEAAGAPSVFLFPPKPKDTLMISRTPEVTCVVVDVSHEDPEVKFNWYVDGVEVHNAKTKPREEQYNSTYRVVSVLTVLHQDWLNGKEYKCKVSNKALPAPIEKTISKAKGQPREPQVYTLPPCREEMTKNQVSLSCAVKGFYPSDIAVEWESNGQPENNYKTTPPVLDSDGSFFLVSKLTVDKSRWQQGNVFSCSVLHEALHSHYTQKSLSLSPGK
light 1: DIQMTQSPSSLSASVGDRVTITCRASESVDHFGWSLVHWYQQKPGKAPKLLIYRADSLETGVPSRFSGSGSGTDFTLTISSLQPEDFATYYCQQSNEDPWTFGGGTKVEIKRTVAAPSVFIFPPSDEQLKSGTASVSCLLNNFYPREAKVQWKVDNALQSGNSQESVTEQDSKDSTYSLDSTLTLSKADYEKHKVYACEVTHQGLSSPVTKSFNRGEC
light 2: DIQMTQSPSSLSASVGDRVTITCRASQSVDEEGDSYMNWYQQKPGKAPKLLIYAASNLESGVPSRFSGSGSGTDFTLTISSLQPEDFATYYCQQSHKDPPTFGGGTKVEIKRTVAAPSVFIFPPSDEQLKSGTASVSCLLNNFYPREAKVQWKVDNALQSGNSQESVTEQDSKDSTYSLKSTLTLSKADYEKHKVYACEVTHQGLSSPVTKSFNRGEC
chain 2: EVQLVESGGGLVQPGGSLRLSCAASGFTFSSYWMYWVRQAPGKGLEWVAAITPNAGEDYYPESVKGRFTISRDNAKNSLYLQMNSLRAEDTAVYYCARGHYYYTSYSLGYWGQGTLVTVSSASTKGPSVFPLAPSSKSTSGGTAALGCLVKDYFPEPVTVSWNSGALTSGVHTFPAVLQSSGLYSLSSVVTVPSSSLGTQTYICNVNHKPSNTKVDKKVEPKSC
As to B3, the “IL-4 Induced CD23 Expression, potency of cytokine neutralization” value with recombinant human IL-4 [1] worked out at 66.9 pM. Besides, the “IL-13 Induced CD23 Expression, potency of cytokine neutralization” value with recombinant human IL-13 was determined as 20.3 pM. Moreover, the “IL-33 mm2 Cys Activation of SEAP Reporter Cells, potency of cytokine neutralization” value with IL-33 mm2 turned out to be 182 pM.

B4: IL4-1040 (antibody, human IgG1, kappa, V domains shown)
VH: EVTLRESGPALVKPTQTLTLTCTFSGFSLSNFGEGLSWIRQPPGKGLEWLAHIYWDDDKRYNPSLKSRLTISKDTSRNQVVLTMTNMDPVDTATYYCARRETVFYWYFDVWGQGTTVTVSS
VL: DIQMTQSPSSLSASVGDRVTITCRASQSVDEEGDSYMNWYQQKPGKAPKLLIYAASNLESGVPSRFSGSGSGTDFTLTISSLQPEDFATYYCQQSNKDPPTFGGGTKVEIKR
With B4, in the test with recombinant human IL-4 [2], the “IL-4 induced CD23 upregulation (IC50), parental IgG” value was 3.23 pM. Also, the “IC50 (median), IL-4 induced CD23 expression on human monocytes” value with recombinant human IL-4 [3] was determined as 3.23 pM.
